Ki data for five molecules are collected here from patent US20200024322A1 (Eli Lilly, published 2020).

Numbered stars: 1 amine (or outer) side, 2 acyl side, 3 side chain; on linkers, the order of the positions; unused ones are H or OH. Square brackets hold non-standard residues; d marks the D form. Side chains are listed from the residue outwards. Ends that are not written are not given here. * marks the point of attachment. C20 diacid = O=C(O)CCCCCCCCCCCCCCCCCCC(=O)*; γGlu = O=C(O)[C@H](CCC(=O)[*:2])N[*:1]; AEEA = NCCOCCOCC(=O)O; Aib = CC(C)(N)C(=O)O

Assay [1] addresses T1, human GIP receptor (human, UniProt P48546 22-466).
T1 construct: whole, on cells; Used as crude membranes of stably transfected CHO cells; also called hGIPR
T1 sequence (looked up): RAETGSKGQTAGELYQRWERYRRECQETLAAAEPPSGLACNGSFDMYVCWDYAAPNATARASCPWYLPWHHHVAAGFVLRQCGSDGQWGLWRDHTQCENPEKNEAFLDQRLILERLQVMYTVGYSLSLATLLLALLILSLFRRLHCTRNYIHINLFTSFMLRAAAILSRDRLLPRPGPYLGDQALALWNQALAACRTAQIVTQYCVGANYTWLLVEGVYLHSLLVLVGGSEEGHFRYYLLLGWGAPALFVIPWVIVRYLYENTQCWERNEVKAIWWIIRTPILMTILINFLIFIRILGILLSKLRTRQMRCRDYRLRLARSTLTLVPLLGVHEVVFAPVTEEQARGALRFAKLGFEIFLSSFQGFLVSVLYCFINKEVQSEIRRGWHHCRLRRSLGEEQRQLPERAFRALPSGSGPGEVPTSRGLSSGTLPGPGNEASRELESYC
The assay can be described thus: SPA, [125I]-GIP displacement, hGIPR membranes.

The target of assay [2] is T2, human glucagon receptor (human, UniProt P47871 26-477).
T2 construct: whole, on cells; Used as crude membranes of stably transfected HEK293 cells; also called hGcgR; hGLcgR
Kind of assay: SPA, [125I]-Gcg displacement, hGcgR membranes.

Assay [3] deals with T3, human GLP-1 receptor (human, UniProt P43220 24-463).
T3 construct: whole, on cells; Used as crude membranes of stably transfected HEK293 cells; also called hGLP1R; hGLP-1R
Kind of assay: SPA, [125I]-GLP-1 displacement, hGLP-1R membranes.

T2 sequence (P47871 26-477): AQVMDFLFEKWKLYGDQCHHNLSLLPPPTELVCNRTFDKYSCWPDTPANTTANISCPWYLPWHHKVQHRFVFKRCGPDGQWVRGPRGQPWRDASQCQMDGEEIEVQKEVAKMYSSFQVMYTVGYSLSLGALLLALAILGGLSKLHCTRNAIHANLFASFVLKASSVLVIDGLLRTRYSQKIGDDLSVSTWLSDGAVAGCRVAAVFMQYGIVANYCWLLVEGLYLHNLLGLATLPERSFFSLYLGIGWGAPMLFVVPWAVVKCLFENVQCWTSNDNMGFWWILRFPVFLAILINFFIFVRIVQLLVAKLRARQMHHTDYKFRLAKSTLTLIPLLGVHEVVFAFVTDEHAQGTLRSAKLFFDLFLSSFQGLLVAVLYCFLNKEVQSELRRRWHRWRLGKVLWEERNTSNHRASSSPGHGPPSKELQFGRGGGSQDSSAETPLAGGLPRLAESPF

B1: Example 42 (peptide)
peptide: Y[Aib]EGTFTSDYSILLDKIAQ[Aib]AFIEYLIEGGPSK([AEEA-AEEA-γGlu-C20 diacid])GAPPPS-NH2
modifications: N-terminus assumed
SMILES: CC[C@H](C)[C@H](NC(=O)[C@H](CCCCN)NC(=O)[C@H](CC(=O)O)NC(=O)[C@H](CC(C)C)NC(=O)[C@H](CC(C)C)NC(=O)[C@@H](NC(=O)[C@H](CO)NC(=O)[C@H](Cc1ccc(O)cc1)NC(=O)[C@H](CC(=O)O)NC(=O)[C@H](CO)NC(=O)[C@@H](NC(=O)[C@H](Cc1ccccc1)NC(=O)[C@@H](NC(=O)CNC(=O)[C@H](CCC(=O)O)NC(=O)C(C)(C)NC(=O)[C@@H](N)Cc1ccc(O)cc1)[C@@H](C)O)[C@@H](C)O)[C@@H](C)CC)C(=O)N[C@@H](C)C(=O)N[C@@H](CCC(N)=O)C(=O)NC(C)(C)C(=O)N[C@@H](C)C(=O)N[C@@H](Cc1ccccc1)C(=O)N[C@H](C(=O)N[C@@H](CCC(=O)O)C(=O)N[C@@H](Cc1ccc(O)cc1)C(=O)N[C@@H](CC(C)C)C(=O)N[C@H](C(=O)N[C@@H](CCC(=O)O)C(=O)NCC(=O)NCC(=O)N1CCC[C@H]1C(=O)N[C@@H](CO)C(=O)N[C@@H](CCCCNC(=O)COCCOCCNC(=O)COCCOCCNC(=O)CC[C@H](NC(=O)CCCCCCCCCCCCCCCCCCC(=O)O)C(=O)O)C(=O)NCC(=O)N[C@@H](C)C(=O)N1CCC[C@H]1C(=O)N1CCC[C@H]1C(=O)N1CCC[C@H]1C(=O)N[C@@H](CO)C(N)=O)[C@@H](C)CC)[C@@H](C)CC
The term Ki denotes the dissociation constant of the complex between target and ligand, obtained from inhibition or displacement. Consider B1, for which the Ki in assay [1] stood at 0.0514 nM; in assay [2], 160 nM; in assay [3], 13.2 nM.

B2: Example 43 (peptide)
peptide: Y[Aib]EGTFTSDYSILLDKIAQ[Aib]AFIEYLIEGGPSSK([AEEA-AEEA-γGlu-C20 diacid])APPPS-NH2
modifications: N-terminus assumed
SMILES: CC[C@H](C)[C@H](NC(=O)[C@H](CCCCN)NC(=O)[C@H](CC(=O)O)NC(=O)[C@H](CC(C)C)NC(=O)[C@H](CC(C)C)NC(=O)[C@@H](NC(=O)[C@H](CO)NC(=O)[C@H](Cc1ccc(O)cc1)NC(=O)[C@H](CC(=O)O)NC(=O)[C@H](CO)NC(=O)[C@@H](NC(=O)[C@H](Cc1ccccc1)NC(=O)[C@@H](NC(=O)CNC(=O)[C@H](CCC(=O)O)NC(=O)C(C)(C)NC(=O)[C@@H](N)Cc1ccc(O)cc1)[C@@H](C)O)[C@@H](C)O)[C@@H](C)CC)C(=O)N[C@@H](C)C(=O)N[C@@H](CCC(N)=O)C(=O)NC(C)(C)C(=O)N[C@@H](C)C(=O)N[C@@H](Cc1ccccc1)C(=O)N[C@H](C(=O)N[C@@H](CCC(=O)O)C(=O)N[C@@H](Cc1ccc(O)cc1)C(=O)N[C@@H](CC(C)C)C(=O)N[C@H](C(=O)N[C@@H](CCC(=O)O)C(=O)NCC(=O)NCC(=O)N1CCC[C@H]1C(=O)N[C@@H](CO)C(=O)N[C@@H](CO)C(=O)N[C@@H](CCCCNC(=O)COCCOCCNC(=O)COCCOCCNC(=O)CC[C@H](NC(=O)CCCCCCCCCCCCCCCCCCC(=O)O)C(=O)O)C(=O)N[C@@H](C)C(=O)N1CCC[C@H]1C(=O)N1CCC[C@H]1C(=O)N1CCC[C@H]1C(=O)N[C@@H](CO)C(N)=O)[C@@H](C)CC)[C@@H](C)CC
For B2, the inhibition constant Ki in assay [1] amounted to 0.101 nM; in assay [2] it was 134 nM; in assay [3], 11.8 nM.

B3: Example 44 (peptide)
peptide: Y[Aib]EGTFTSDYSILLDKIAQ[Aib]AFIEYLIEGGPSSGK([AEEA-AEEA-γGlu-C20 diacid])PPPS-NH2
modifications: N-terminus assumed
SMILES: CC[C@H](C)[C@H](NC(=O)[C@H](CCCCN)NC(=O)[C@H](CC(=O)O)NC(=O)[C@H](CC(C)C)NC(=O)[C@H](CC(C)C)NC(=O)[C@@H](NC(=O)[C@H](CO)NC(=O)[C@H](Cc1ccc(O)cc1)NC(=O)[C@H](CC(=O)O)NC(=O)[C@H](CO)NC(=O)[C@@H](NC(=O)[C@H](Cc1ccccc1)NC(=O)[C@@H](NC(=O)CNC(=O)[C@H](CCC(=O)O)NC(=O)C(C)(C)NC(=O)[C@@H](N)Cc1ccc(O)cc1)[C@@H](C)O)[C@@H](C)O)[C@@H](C)CC)C(=O)N[C@@H](C)C(=O)N[C@@H](CCC(N)=O)C(=O)NC(C)(C)C(=O)N[C@@H](C)C(=O)N[C@@H](Cc1ccccc1)C(=O)N[C@H](C(=O)N[C@@H](CCC(=O)O)C(=O)N[C@@H](Cc1ccc(O)cc1)C(=O)N[C@@H](CC(C)C)C(=O)N[C@H](C(=O)N[C@@H](CCC(=O)O)C(=O)NCC(=O)NCC(=O)N1CCC[C@H]1C(=O)N[C@@H](CO)C(=O)N[C@@H](CO)C(=O)NCC(=O)N[C@@H](CCCCNC(=O)COCCOCCNC(=O)COCCOCCNC(=O)CC[C@H](NC(=O)CCCCCCCCCCCCCCCCCCC(=O)O)C(=O)O)C(=O)N1CCC[C@H]1C(=O)N1CCC[C@H]1C(=O)N1CCC[C@H]1C(=O)N[C@@H](CO)C(N)=O)[C@@H](C)CC)[C@@H](C)CC
Take B3: the Ki in assay [1] came to 0.0516 nM; in assay [2], 121 nM; in assay [3] it was 10.6 nM.

B4: Example 45 (peptide)
peptide: Y[Aib]EGTFTSDYSILLDKIAQ[Aib]AFIEYLIEGGPSSGAK([AEEA-AEEA-γGlu-C20 diacid])PPS-NH2
modifications: N-terminus assumed
SMILES: CC[C@H](C)[C@H](NC(=O)[C@H](CCCCN)NC(=O)[C@H](CC(=O)O)NC(=O)[C@H](CC(C)C)NC(=O)[C@H](CC(C)C)NC(=O)[C@@H](NC(=O)[C@H](CO)NC(=O)[C@H](Cc1ccc(O)cc1)NC(=O)[C@H](CC(=O)O)NC(=O)[C@H](CO)NC(=O)[C@@H](NC(=O)[C@H](Cc1ccccc1)NC(=O)[C@@H](NC(=O)CNC(=O)[C@H](CCC(=O)O)NC(=O)C(C)(C)NC(=O)[C@@H](N)Cc1ccc(O)cc1)[C@@H](C)O)[C@@H](C)O)[C@@H](C)CC)C(=O)N[C@@H](C)C(=O)N[C@@H](CCC(N)=O)C(=O)NC(C)(C)C(=O)N[C@@H](C)C(=O)N[C@@H](Cc1ccccc1)C(=O)N[C@H](C(=O)N[C@@H](CCC(=O)O)C(=O)N[C@@H](Cc1ccc(O)cc1)C(=O)N[C@@H](CC(C)C)C(=O)N[C@H](C(=O)N[C@@H](CCC(=O)O)C(=O)NCC(=O)NCC(=O)N1CCC[C@H]1C(=O)N[C@@H](CO)C(=O)N[C@@H](CO)C(=O)NCC(=O)N[C@@H](C)C(=O)N[C@@H](CCCCNC(=O)COCCOCCNC(=O)COCCOCCNC(=O)CC[C@H](NC(=O)CCCCCCCCCCCCCCCCCCC(=O)O)C(=O)O)C(=O)N1CCC[C@H]1C(=O)N1CCC[C@H]1C(=O)N[C@@H](CO)C(N)=O)[C@@H](C)CC)[C@@H](C)CC
On to B4, for which the results for the Ki in assay [1], in assay [2] and in assay [3] were 0.0463 nM, 11.1 nM and 5.65 nM, respectively.

B5: Example 46 (peptide)
peptide: Y[Aib]EGTFTSDYSILLDKIAQ[Aib]AFIEYLIEGGPSSGAPK([AEEA-AEEA-γGlu-C20 diacid])PS-NH2
modifications: N-terminus assumed
SMILES: CC[C@H](C)[C@H](NC(=O)[C@H](CCCCN)NC(=O)[C@H](CC(=O)O)NC(=O)[C@H](CC(C)C)NC(=O)[C@H](CC(C)C)NC(=O)[C@@H](NC(=O)[C@H](CO)NC(=O)[C@H](Cc1ccc(O)cc1)NC(=O)[C@H](CC(=O)O)NC(=O)[C@H](CO)NC(=O)[C@@H](NC(=O)[C@H](Cc1ccccc1)NC(=O)[C@@H](NC(=O)CNC(=O)[C@H](CCC(=O)O)NC(=O)C(C)(C)NC(=O)[C@@H](N)Cc1ccc(O)cc1)[C@@H](C)O)[C@@H](C)O)[C@@H](C)CC)C(=O)N[C@@H](C)C(=O)N[C@@H](CCC(N)=O)C(=O)NC(C)(C)C(=O)N[C@@H](C)C(=O)N[C@@H](Cc1ccccc1)C(=O)N[C@H](C(=O)N[C@@H](CCC(=O)O)C(=O)N[C@@H](Cc1ccc(O)cc1)C(=O)N[C@@H](CC(C)C)C(=O)N[C@H](C(=O)N[C@@H](CCC(=O)O)C(=O)NCC(=O)NCC(=O)N1CCC[C@H]1C(=O)N[C@@H](CO)C(=O)N[C@@H](CO)C(=O)NCC(=O)N[C@@H](C)C(=O)N1CCC[C@H]1C(=O)N[C@@H](CCCCNC(=O)COCCOCCNC(=O)COCCOCCNC(=O)CC[C@H](NC(=O)CCCCCCCCCCCCCCCCCCC(=O)O)C(=O)O)C(=O)N1CCC[C@H]1C(=O)N[C@@H](CO)C(N)=O)[C@@H](C)CC)[C@@H](C)CC
For the molecule B5, the values for the Ki in assay [1], in assay [2] and in assay [3] were 0.0852 nM, 133 nM and 13.4 nM, respectively.
